# Data from patent US20210380703A1 (RIGEL PHARMACEUTICALS, published 2021).
# Positions count from the first letter of the chain named.
# B1: 371_E12 (antibody, V domains shown)
# VH: EVQLLESGGGLVQPGGSLRLSCAASGFTFDSYSMNWVRQAPGKGLEWVSGINYNSGYKSYADSVKGRFTISRDNSKNTLYLQMNSLRAEDTAVYYCARGATWHDTHLDYWGQGTLVTVSS
# VL: DIQMTQSPSSLSASVGDRVTITCRASQSILSYLNWYQQKPGKAPKLLIYAATSLASGVPSRFSGSGSGTDFTLTISSLQPEDFATYYCQQSYDTPLTFGGGTKVEIK
# notes: VH/VL only
# B2: 374_H05 (antibody, V domains shown)
# VH: B1 VH with D30S, S49A, S55G, K58T
# VL: B1 VL with L33V, L47V, L54R, T94N
# notes: VH/VL only
# B3: 375_F10 (antibody, V domains shown)
# VH: B1 VH with D30S, S55G, K58T, S59G
# VL: B1 VL with S31T, L47V, L54R
# notes: VH/VL only
# B4: 372_B09 (antibody, V domains shown)
# VH: B1 VH with D30S, G50S, K58T
# VL: B1 VL with S31T, L54R, D93E
# notes: VH/VL only
# B5: 374_D09 (antibody, V domains shown)
# VH: B1 VH with S33G, S49A, G50N, S55G, S59G
# VL: B1 VL with L30I, L33V
# notes: VH/VL only
# B6: 375_C01 (antibody, V domains shown)
# VH: B1 VH with D30S, S33G, G50S, S55G, S59G
# VL: not shown
# notes: VH/VL only
# B7: 372_E08 (antibody, V domains shown)
# VH: B1 VH with D30S, S31D, G50N, S55G, K58T
# VL: B1 VL with L30I, S31T, L54R, D93N, T94L
# notes: VH/VL only
# B8: 372_H11 (antibody, V domains shown)
# VH: B1 VH with D30S, S33G, N35H, S49A, S55G, K58T
# VL: B1 VL with L33V, L54R, D93E, T94N
# notes: VH/VL only
# B9: 371_G01 (antibody, V domains shown)
# VH: B1 VH with D30S, S31D, G50N, S55G, K58T
# VL: B1 VL with S31T, T94L
# notes: VH/VL only
# B10: 373_F07 (antibody, V domains shown)
# VH: B1 VH with D30S
# VL: B1 VL with D93E
# notes: VH/VL only
# B11: 373_G02 (antibody, V domains shown)
# VH: B1 VH with D30S, S55G, K58T
# VL: B1 VL with L30I, S31T, L54R, D93S, T94S
# notes: VH/VL only
# B12: 372_F02 (antibody, V domains shown)
# VH: B1 VH with D30S, S33G, N35H, S49A, G50S, S55G, K58T
# VL: B1 VL with S31T, L47V, L54R, A55H, T94L
# notes: VH/VL only
# B13: 376_A05 (antibody, V domains shown)
# VH: B1 VH with D30S, S49A, S59G
# VL: B1 VL with S31T, L54R, D93N
# notes: VH/VL only
# B14: 374_D04 (antibody, V domains shown)
# VH: B1 VH with D30S, S49A, S55G, K58T
# VL: B1 VL with L47V, L54R, A55H
# notes: VH/VL only
# B15: 373_D06 (antibody, V domains shown)
# VH: B1 VH with D30S, S49A, S55G, K58T
# VL: B1 VL with L30V, S31T, L54R
# notes: VH/VL only
# B16: 374_C10 (antibody, V domains shown)
# VH: B1 VH with D30S, G50S, S55G, S59G
# VL: B1 VL with L30V, S31T, D93N
# notes: VH/VL only
# B17: 373_B09 (antibody, V domains shown)
# VH: B1 VH with S55G
# VL: B1 VL with L47V, D93E
# notes: VH/VL only
# B18: 371_H11 (antibody, V domains shown)
# VH: B1 VH with D30S, S55G, S59G
# VL: B1 VL with S31T, A51T, L54R, A55H, D93E, T94S
# notes: VH/VL only
# B19: 374_G05 (antibody, V domains shown)
# VH: B1 VH with D30S, G50N, S59G
# VL: B1 VL with L30I, L54R, T94L
# notes: VH/VL only
# B20: 375_A03 (antibody, V domains shown)
# VH: B1 VH with S49A, S55G, K58T
# VL: B1 VL with S31T, L54R, A55H, T94N
# notes: VH/VL only
# B21: 371_F09 (antibody, V domains shown)
# VH: B1 VH with D30S, S49A, S55G, K58T
# VL: B1 VL with S31T, L54R, T94N
# notes: VH/VL only
# B22: 376_H01 (antibody, V domains shown)
# VH: B1 VH with D30S, S31D, S49A, S55G, S59G, T101N, H106A
# VL: B1 VL with S31T, L54R, D93S
# notes: VH/VL only
# B23: 375_H08 (antibody, V domains shown)
# VH: B1 VH with D30S, S55G, K58T
# VL: B1 VL with S31T, T94S
# notes: VH/VL only
# B24: 376_F06 (antibody, V domains shown)
# VH: B1 VH with D30S, S33G, S55G, K58T, S59G, T101N
# VL: B1 VL with S31T, L33V, L47V, L54R, D93E
# notes: VH/VL only
# B25: 376_H04 (antibody, V domains shown)
# VH: B1 VH with D30S, S49A, S55G, S59G, T101N, H106A
# VL: B1 VL with S31T, L33V, L47V, L54R, T94L
# notes: VH/VL only
# B26: 374_A04 (antibody, V domains shown)
# VH: B1 VH with D30S, S49A, S55G, K58T
# VL: B1 VL with S31T, L47V, L54R
# notes: VH/VL only
# B27: 371_F03 (antibody, V domains shown)
# VH: B1 VH with D30S, S55G, K58T
# VL: B1 VL with L30I, S31T, A55H, T94N
# notes: VH/VL only
# B28: 376_A02 (antibody, V domains shown)
# VH: B1 VH with D30S, S49A, S55G
# VL: B1 VL with L54R, T94L
# notes: VH/VL only
# B29: 373_A06 (antibody, V domains shown)
# VH: B1 VH with D30S, S55G
# VL: not shown
# notes: VH/VL only
# B30: 376_A07 (antibody, V domains shown)
# VH: B1 VH with D30S, S55G
# VL: B1 VL with S31T, L54R, T94S
# notes: VH/VL only
# B31: 375_C11 (antibody, V domains shown)
# VH: B1 VH with D30S, G50S, S55G, K58T
# VL: B1 VL with L33V, L54R, A55H
# notes: VH/VL only
# B32: 376_G10 (antibody, V domains shown)
# VH: B1 VH with S33G, S49A, S55G, K58T, T101N, H106A
# VL: B1 VL with L33V, L54R, D93E, T94S
# notes: VH/VL only
# B33: 376_G05 (antibody, V domains shown)
# VH: B1 VH with D30S, S49A, S55G, K58T, T101N, H106A
# VL: B1 VL with L30I, L33V, L47V, L54R, D93E, T94S
# notes: VH/VL only
# B34: 374_A05 (antibody, V domains shown)
# VH: B1 VH with D30S, S31D, S33G, S49A, G50N, S55G, S59G
# VL: B1 VL with L30V, S31R, L47V, D93E, T94L
# notes: VH/VL only
# B35: 376_G06 (antibody, V domains shown)
# VH: B1 VH with D30S, S33G, S49A, S55G, K58T, S59G, T101N
# VL: B1 VL with L30V, L33V, L47V, L54R, D93N, T94S
# notes: VH/VL only
# Biological target: T1, Human ACVR2A (human, UniProt P27037 20-135, limits assumed)
# T1 construct: also called activin receptor, type II A
# Experiment: ELISA
# Method in brief: (§1)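 Monoclonal antibodies were first applied to human or mouse ACVR2A, alongside biotinylated goat anti-human kappa light chain (positive control) and human Fc (negative control); binding was then determined by ELISA.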
# Further: test concentration or dose not given here.
# T1 sequence (P27037 20-135 limits assumed): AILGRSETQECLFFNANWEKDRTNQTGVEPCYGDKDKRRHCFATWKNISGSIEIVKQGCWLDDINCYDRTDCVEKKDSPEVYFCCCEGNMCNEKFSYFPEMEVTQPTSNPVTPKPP
row,optical density [OD],Binder
1,3.09,B1
2,3.31,B2
3,3.69,B3
4,3.11,B4
5,3.61,B5
6,2.96,B6
7,2.56,B7
8,2.62,B8
9,2.01,B9
10,3.61,B10
11,3.59,B11
12,3.01,B12
13,3.65,B13
14,3.63,B14
15,3.63,B15
16,3.57,B16
17,3.6,B17
18,2.89,B18

row,optical density [OD],Binder
1,3.66,B19
2,3.62,B20
3,3.37,B21
4,3.11,B22
5,3.31,B23
6,3.52,B24
7,3.31,B25
8,3.65,B26
9,1.19,B27
10,3.72,B28
11,3.64,B29
12,3.7,B30
13,3.59,B31
14,3.54,B32
15,3.75,B33
16,3.6,B34
17,3.42,B35

# Biological target: Mouse ACVR2A (mouse, UniProt P27038 20-135, limits assumed)
# Experiment: ELISA
# Method in brief: as §1
# Mouse ACVR2A, sequence (P27038 20-135 limits assumed): as the sequence (P27037 20-135 limits assumed) above, with K20R, V73I counted along it
row,optical density [OD],Binder
1,2.99,B1
2,3.3,B2
3,3.77,B3
4,3.01,B4
5,3.65,B5
6,3.27,B6
7,2.82,B7
8,2.86,B8
9,2.24,B9
10,3.62,B10
11,3.56,B11
12,3.09,B12
13,3.64,B13
14,3.65,B14
15,3.57,B15
16,3.67,B16
17,3.62,B17
18,3.12,B18

row,optical density [OD],Binder
1,3.67,B19
2,3.62,B20
3,3.57,B21
4,3.31,B22
5,3.28,B23
6,3.65,B24
7,3.34,B25
8,3.68,B26
9,1.3,B27
10,3.63,B28
11,3.62,B29
12,3.72,B30
13,3.61,B31
14,3.52,B32
15,3.77,B33
16,3.6,B34
17,3.58,B35

# Biological target: T2, Goat anti-Human Kappa
# T2 construct: Positive control; also called biotinylated goat anti-human kappa light chain
# Experiment: ELISA; positive control
# Method in brief: as §1
row,optical density [OD],Binder
1,3.62,B1
2,3.04,B2
3,3.29,B3
4,3.5,B4
5,3.1,B5
6,3.14,B6
7,3.51,B7
8,3.65,B8
9,1.79,B9
10,3.13,B10
11,3.22,B11
12,3.69,B12
13,3.18,B13
14,3.05,B14
15,3.21,B15
16,3.08,B16
17,3.24,B17
18,3.6,B18

row,optical density [OD],Binder
1,3,B19
2,3.09,B20
3,3.6,B21
4,3.28,B22
5,3.32,B23
6,3.47,B24
7,3.51,B25
8,2.99,B26
9,1.82,B27
10,3.19,B28
11,3.07,B29
12,3.19,B30
13,3.26,B31
14,3.54,B32
15,3.49,B33
16,2.92,B34
17,3.49,B35
